Our source for the Ki values is patent publication US20200246472A1.

Square brackets hold non-standard residues; d marks the D form. Ends that are not written are not given here. Dmt = Cc1cc(O)cc(C)c1C[C@H](N)C(=O)O

What all share (assay): binding test (Ki), method not described
Test [1] deals with KOR.
The target in test [2] is DOR.
The target of test [3] is MOR.
Sequence of MOR (P35372 whole entry): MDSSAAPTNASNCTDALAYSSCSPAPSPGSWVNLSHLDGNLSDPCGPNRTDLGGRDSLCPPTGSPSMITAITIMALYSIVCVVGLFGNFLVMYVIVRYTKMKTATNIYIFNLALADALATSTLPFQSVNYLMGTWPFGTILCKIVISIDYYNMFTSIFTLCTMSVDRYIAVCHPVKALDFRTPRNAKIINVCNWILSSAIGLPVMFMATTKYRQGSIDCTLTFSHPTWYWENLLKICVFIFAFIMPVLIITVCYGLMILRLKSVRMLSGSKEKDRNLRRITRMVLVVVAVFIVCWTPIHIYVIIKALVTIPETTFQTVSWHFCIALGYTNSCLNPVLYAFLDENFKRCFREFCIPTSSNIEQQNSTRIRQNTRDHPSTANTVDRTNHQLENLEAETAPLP

B1: CM-58 (peptide)
peptide: [Dmt]PWFQFQFK-NH2
modifications: N-terminus assumed
SMILES: Cc1cc(O)cc(C)c1C[C@H](N)C(=O)N1CCC[C@H]1C(=O)N[C@@H](Cc1c[nH]c2ccccc12)C(=O)N[C@@H](Cc1ccccc1)C(=O)N[C@@H](CCC(N)=O)C(=O)N[C@@H](Cc1ccccc1)C(=O)N[C@@H](CCC(N)=O)C(=O)N[C@@H](Cc1ccccc1)C(=O)N[C@@H](CCCCN)C(N)=O
For the molecule B1, the inhibition constant Ki in test [1] is 120 nM; in test [2] it was 15 nM; in test [3], 7.5 nM.

B2: CM-56 (peptide)
peptide: [Dmt]PFFQFQFK-NH2
modifications: N-terminus assumed
SMILES: Cc1cc(O)cc(C)c1C[C@H](N)C(=O)N1CCC[C@H]1C(=O)N[C@@H](Cc1ccccc1)C(=O)N[C@@H](Cc1ccccc1)C(=O)N[C@@H](CCC(N)=O)C(=O)N[C@@H](Cc1ccccc1)C(=O)N[C@@H](CCC(N)=O)C(=O)N[C@@H](Cc1ccccc1)C(=O)N[C@@H](CCCCN)C(N)=O
Regarding B2, the Ki in test [1] was determined as 337 nM; in test [2] it was 176 nM; in test [3], 65 nM.

Broadly, the Ki is the equilibrium dissociation constant of an inhibitor or competing ligand from its target. Low readings indicate a stronger hold on the target, high ones a looser hold on the target.
